Article PMC6765145
Read-outs that look alike come from different tables or passages of the source.

What was measured:
Assay in all cases: EMSA
[1] = target: T1, Aca2 (Pectobacterium carotovorum temperate …, UniProt H9C180 1-116)
T1 sequence: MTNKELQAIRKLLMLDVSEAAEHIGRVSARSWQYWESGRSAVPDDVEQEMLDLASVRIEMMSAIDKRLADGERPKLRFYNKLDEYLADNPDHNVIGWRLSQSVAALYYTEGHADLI

[2] = target: T1, Aca2; remark: listed apart in the source
[3] = target: T1, Aca2; remark: listed apart in the source

B1: wtIR1-scIR2 promoter probe (dsDNA)
DNA 1: CACGAATGCGGCCTTAGCGATTAAAAAATATGAAATGCCTTGCTTGTTCGCGATTGCGAACATATAATTTATTCATCGGAGACTACTGCAGGTCTTCGCTCCTAACGAGGATTCCACAATGC
DNA 2: GCATTGTGGAATCCTCGTTAGGAGCGAAGACCTGCAGTAGTCTCCGATGAATAAATTATATGTTCGCAATCGCGAACAAGCAAGGCATTTCATATTTTTTAATCGCTAAGGCCGCATTCGTG
**Q.** With B1 as the binder, how does the Kd [1] read?
**A.** The Kd was 1.07 nM.

B2: scIR1-wtIR2 promoter probe (dsDNA)
DNA 1: CACGAATGCGGCCTTAGCGATTAAAAAATATGAAATGCCTTGCTTGAGACACGAGAGTCTCATATAATTTATTCATCGGTTCGAGATGGCTCGAATCGCTCCTAACGAGGATTCCACAATGC
DNA 2: GCATTGTGGAATCCTCGTTAGGAGCGATTCGAGCCATCTCGAACCGATGAATAAATTATATGAGACTCTCGTGTCTCAAGCAAGGCATTTCATATTTTTTAATCGCTAAGGCCGCATTCGTG
**Q.** Does B2 bind [2]?
**A.** Result: no binding

B3: scIR1-scIR2 promoter probe (dsDNA)
DNA 1: CACGAATGCGGCCTTAGCGATTAAAAAATATGAAATGCCTTGCTTGAGACACGAGAGTCTCATATAATTTATTCATCGGAGACTACTGCAGGTCTTCGCTCCTAACGAGGATTCCACAATGC
DNA 2: GCATTGTGGAATCCTCGTTAGGAGCGAAGACCTGCAGTAGTCTCCGATGAATAAATTATATGAGACTCTCGTGTCTCAAGCAAGGCATTTCATATTTTTTAATCGCTAAGGCCGCATTCGTG
**Q.** Does B3 bind [3]?
**A.** Result: no binding
